Data taken from patent publication US20260224754A1, “ORAL FORMULATION TO ENSURE BIOAVAILABILITY OF PEPTIDE, PROTEIN, AND NUCLEIC ACID THERAPEUTICS” (THE TRUSTEES OF COLUMBIA UNIVERSITY IN THE CITY OF NEW YORK, priority 2023, published 2026).

Columns and labels:
muscles of WT male mice = test: muscle gene expression in WT mice treated with recombinant LCN2; format: in vivo
Source text: (§1) Mean±SEM. *, P<0.05, Student's t test.
FIGS. 32A-32B show relative expression levels (fold over vehicle) of MyHCIIa and MyHCIIb in EDL of 12-week-old male Lcn2osb−/− or WT littermates (FIG. 32A) or 8-week-old WT male mice treated with the indicated doses of recombinant Lcn2 or vehicle (n=6/group) for 16 weeks (FIG. 32B). Mean±SEM. *, P<0.05, Student's t test.
FIGS. 34A-34B show relative expression levels (fold over vehicle) of the indicated genes in tibialis anterior of 12-week-old male Lcn2osb−/− or WT littermates (FIG. 34A) or 8-week-old WT male mice treated with 150 ng/g/day recombinant Lcn2 (n=7) or vehicle (n=8) for 16 weeks (FIG. 34B). Mean±SEM. *, P<0.05, Student's t test.
Regarding muscle function, LCN2 is required to maintain lean mass and endurance. […] Endurance measured as exercise distance of 6-month old LCN2−/− and WT littermates individually housed in cages equipped with voluntary running wheels and recorded for 14 days following a 7-day acclimation is shown in FIG. 28B. The increase in energy expenditure of overexpressed LCN2 can be explained in part from the increase in lean body mass, which is correlated to basal metabolic rate. […] Myogenic regulatory factors, namely myf5, mrf4, myoD and myoG. are transcription factors that regulate myogenesis. In the knockout mice, these myogenic factors either decreased or had little change though seems to trend to decrease.
Furthermore, the effect was studied in the specific type of type two muscle fiber. Type IIb is the classical fast twitch, white meat, glycolytic fiber type, whereas type IIa is still considered fast twitch but with oxidative capacity. It is considered in between an in between muscle fiber type between type 1, which are the slow twitch, red meat, oxidative muscle fiber, and classic type IIB. […] Both type II fibers are fast twitch, primarily glycolytic muscle fibers, but the type A ones are characterized by more mitochondria and seem to be more oxidative. […]

C2C12 cells = test: gene expression and PKA/cAMP in C2C12 cells treated with recombinant LCN2; format: cell-based, mouse
Method: as §1
FIG. 37 show relative expression levels (fold over vehicle) of AcylcoA, Mcad and Ucp2 in C2C12 cells treated with increasing concentrations of recombinant Lcn2 for 4 h. Mean±SEM. *, P<0.05, Student's t test.
The in vivo results were confirmed in vitro. […] FIG. 40 summarizes how LCN2 regulate lean body mass with an increase in myogenesis and energy expenditure.

B1: LCN2: bone-derived hormone, also known as oncogene 24p3 or neutrophil gelatinase-associated lipocalin (protein, UniProt P80188 21-198, looked up)
Neutrophil …: QDSTSDLIPAPPLSKVPLQQNFQDNQFQGKWYVVGLAGNAILREDKDPQKMYATIYELKEDKSYNVTSVLFRKKKCDYWIRTFVPGCQPGEFTLGNIKSYPGLTSYLVRVVSTNYNQHAMVFFKKVSQNREYFKITLYGRTKELTSELKENFIRFSKSLGLPENHIVFPVPIDQCIDG
myosin heavy chain type IIa versus type IIb (muscles of WT male mice; EDL, WT male mice, 16 weeks): increases the amount of myosin heavy chain type IIa compared to type IIb
expression of myogenic regulatory factors (myf5, mrf4, myoD, myoG) (muscles of WT male mice; male WT mice treated with LCN2): at least a twofold increase in all myogenic regulatory factors
expression of mitochondrial genes (muscles of WT male mice; tibialis anterior, WT mice treated with LCN2): increase in these mitochondrial genes
expression of genes associated with beta-oxidation (C2C12 cells; 4 h): increase in the expression of genes associated with B-oxidation
expression of genes that promote mitochondrial biogenesis (NRF1, Pgc1a) (C2C12 cells; 4 h): increases the expression of genes that promote mitochondrial biogenesis
expression of genes that promote myogenesis (C2C12 cells; 4 h): increases the expression of genes that promote myogenesis
PKA/cAMP activity (C2C12 cells; Western blot and ELISA): induces PKA/cAMP activity
